Results from publication PMC10926838, “Self-driving laboratories to autonomously navigate the protein fitness landscape” (Nature chemical engineering, 2024).
Each block holds one molecule with its values, some of them ahead of it.

How the values were obtained:
6151 = test system: T1, 6151; assay: fluorescence of released 4-methylumbelliferone, Michaelis-Menten fit; format: biochemical, Streptomyces sp.; details: 10 nM enzyme, 0.5% DMSO, 10 mM phosphate pH 7, 50 mM NaCl
T1 construct: gene P6F0-P1F1-P5F2-P1F3; pET-22b, Ni-NTA purified
Text: fluorescence of released 4-methylumbelliferone, Michaelis-Menten fit on 6151 | We also tested the enzymes’ Michaelis–Menten kinetic properties

[1] = substrate: Cc1cc(=O)oc2cc(O[C@@H]3O[C@H](CO)[C@@H](O)[C@H](O)[C@H]3O)ccc12; assay: as above; format: biochemical, Streptomyces sp. QM-B814; details: 10 nM enzyme, 0.5% DMSO, 10 mM phosphate pH 7, 50 mM NaCl

Km 6151: 214 µM
Molecule: Cc1cc(=O)oc2cc(O[C@@H]3O[C@H](CO)[C@@H](O)[C@H](O)[C@H]3O)ccc12 [4-methylumbelliferyl-β-D-glucopyranoside]

B1: Bgl3 (Streptomyces sp. QM-B814) (protein)
chain: MVPAAQQTATAPDAALTFPEGFLWGSATASYQIEGAAAEDGRTPSIWDTYARTPGRVRNGDTGDVATDHYHRWREDVALMAELGLGAYRFSLAWPRIQPTGRGPALQKGLDFYRRLADELLAKGIQPVATLYHWDLPQELENAGGWPERATAERFAEYAAIAADALGDRVKTWTTLNEPWCSAFLGYGSGVHAPGRTDPVAALRAAHHLNLGHGLAVQALRDRLPADAQCSVTLNIHHVRPLTDSDADADAVRRIDALANRVFTGPMLQGAYPEDLVKDTAGLTDWSFVRDGDLRLAHQKLDFLGVNYYSPTLVSEADGSGTHNSDGHGRSAHSPWPGADRVAFHQPPGETTAMGWAVDPSGLYELLRRLSSDFPALPLVITENGAAFHDYADPEGNVNDPERIAYVRDHLAAVHRAIKDGSDVRGYFLWSLLDNFEWAHGYSKRFGAVYVDYPTGTRIPKASARWYAEVARTGVLPTA
notes: wild-type; pET-22b, E. coli BL21(DE3), Ni-NTA purified
Km [1]: 76 µM
kcat [1]: 10.7 s⁻¹
